{"source": "paper PMC8177864", "binders": {"B1": {"name": "HRE consensus (dsDNA)", "DNA 1": "ACGGGTGGAACGCGGTGTTCTTTTGGCACG", "DNA 2": "CGTGCCAAAAGAACACCGCGTTCCACCCGT"}, "B2": {"name": "-499/-484 HRE (dsDNA)", "DNA 1": "ATCTAGAATAATTGGTATTAGAACAGGCTGCTTAAAACAGTTAA", "DNA 2": "TTAACTGTTTTAAGCAGCCTGTTCTAATACCAATTATTCTAGAT"}, "B3": {"name": "-159/-144 HRE (dsDNA)", "DNA 1": "GGGCTTGGCATGTTCTGTTAGCACTCTTTTAGATT", "DNA 2": "AATCTAAAAGAGTGCTAACAGAACATGCCAAGCCC"}}, "key": {"[1]": {"target": "T1, androgen receptor (rAR) (rat, UniProt P15207 1-902)", "T1 sequence (P15207 whole entry S389L)": "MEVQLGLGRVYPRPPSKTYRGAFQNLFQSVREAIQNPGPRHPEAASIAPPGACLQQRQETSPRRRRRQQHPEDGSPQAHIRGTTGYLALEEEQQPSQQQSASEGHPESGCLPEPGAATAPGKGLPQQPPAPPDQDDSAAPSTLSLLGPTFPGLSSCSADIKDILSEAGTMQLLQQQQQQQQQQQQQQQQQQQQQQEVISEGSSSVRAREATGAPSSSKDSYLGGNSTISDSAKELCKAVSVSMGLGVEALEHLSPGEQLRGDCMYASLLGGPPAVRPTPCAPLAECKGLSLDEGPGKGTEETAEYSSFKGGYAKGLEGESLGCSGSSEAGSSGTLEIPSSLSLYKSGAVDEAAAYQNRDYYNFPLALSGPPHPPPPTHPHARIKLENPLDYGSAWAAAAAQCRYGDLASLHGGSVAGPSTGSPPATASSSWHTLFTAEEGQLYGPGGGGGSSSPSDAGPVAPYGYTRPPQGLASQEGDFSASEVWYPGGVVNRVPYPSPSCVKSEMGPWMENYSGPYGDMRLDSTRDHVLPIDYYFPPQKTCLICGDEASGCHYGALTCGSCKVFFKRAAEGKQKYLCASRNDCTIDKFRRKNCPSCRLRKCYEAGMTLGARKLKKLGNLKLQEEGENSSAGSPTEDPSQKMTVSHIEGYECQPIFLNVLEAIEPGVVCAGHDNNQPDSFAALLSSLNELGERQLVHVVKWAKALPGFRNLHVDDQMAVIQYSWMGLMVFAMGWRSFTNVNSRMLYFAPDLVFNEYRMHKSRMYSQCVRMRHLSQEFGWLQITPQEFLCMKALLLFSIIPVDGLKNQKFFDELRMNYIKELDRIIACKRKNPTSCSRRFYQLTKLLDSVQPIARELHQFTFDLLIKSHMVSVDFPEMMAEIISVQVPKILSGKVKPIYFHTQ", "experiment": "EMSA"}, "[2]": {"target": "T1, androgen receptor (rAR)", "experiment": "EMSA", "remark": "listed apart in the source"}}, "note": "Where two headings read alike, the source gives them in different places.", "data": [{"binder": "B1", "values": [{"measurement": "binding result", "setting": "[1]", "value": "binds"}]}, {"binder": "B2", "values": [{"measurement": "binding result", "setting": "[2]", "value": "no binding"}]}, {"binder": "B3", "values": [{"measurement": "binding result", "setting": "[2]", "value": "no binding"}]}]}
